Assay [1] has as its target T1, recombinant human EphB4-Fc fusion protein (human, UniProt P54760 16-539).
T1 construct: extracellular domain; also called hEphB4; hu EphB4-Fc
T1 sequence (looked up): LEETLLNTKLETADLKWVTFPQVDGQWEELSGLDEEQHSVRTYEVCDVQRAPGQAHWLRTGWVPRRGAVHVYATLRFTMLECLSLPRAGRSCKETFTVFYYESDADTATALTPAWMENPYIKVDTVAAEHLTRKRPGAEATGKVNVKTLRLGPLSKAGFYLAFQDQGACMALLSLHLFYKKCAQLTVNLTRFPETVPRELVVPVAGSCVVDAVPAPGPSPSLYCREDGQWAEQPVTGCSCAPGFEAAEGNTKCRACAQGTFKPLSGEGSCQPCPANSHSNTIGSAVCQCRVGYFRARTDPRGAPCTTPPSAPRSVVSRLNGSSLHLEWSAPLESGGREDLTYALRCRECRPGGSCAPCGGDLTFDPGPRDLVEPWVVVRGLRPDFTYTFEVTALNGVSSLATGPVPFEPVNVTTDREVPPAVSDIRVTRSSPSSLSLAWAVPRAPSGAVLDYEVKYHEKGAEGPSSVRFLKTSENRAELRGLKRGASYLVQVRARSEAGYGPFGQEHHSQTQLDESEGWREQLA
Briefly: competition ELISA on coated hEphB4, competitor biotinylated mEphrinB2 250 ng/mL. Here is the method:
A 96-well plate was coated with recombinant hEphB4 in PBS o/n at 4° C. (5 μg/mL; 100 μL/well). The next day, the antigen was discarded and the plate blocked with 3% BSA/PBS (300 μl/well) for 2 hrs at room temperature (RT). Blocking solution was discarded and anti-EphB4 Fabs were added to the wells at different concentrations in 1% BSA/PBS and incubated for 30 min at RT. Recombinant biotinylated murine EphrinB2 was added at a final concentration of 250 ng/mL and incubated at RT for a further 30 min. The plate was washed and bound EphrinB2 was detected with Streptavidin-HRP (incubation 30 min at RT) and chemifluorescent substrate.

Assay [2] has as its target T2, myc-tagged human EphB4 on transfected CHO cells (human, UniProt P54760 16-987).
T2 construct: whole, on cells; also called CHO-EphB4; CHO-hEphB4; not shown: myc tag
T2 sequence (looked up): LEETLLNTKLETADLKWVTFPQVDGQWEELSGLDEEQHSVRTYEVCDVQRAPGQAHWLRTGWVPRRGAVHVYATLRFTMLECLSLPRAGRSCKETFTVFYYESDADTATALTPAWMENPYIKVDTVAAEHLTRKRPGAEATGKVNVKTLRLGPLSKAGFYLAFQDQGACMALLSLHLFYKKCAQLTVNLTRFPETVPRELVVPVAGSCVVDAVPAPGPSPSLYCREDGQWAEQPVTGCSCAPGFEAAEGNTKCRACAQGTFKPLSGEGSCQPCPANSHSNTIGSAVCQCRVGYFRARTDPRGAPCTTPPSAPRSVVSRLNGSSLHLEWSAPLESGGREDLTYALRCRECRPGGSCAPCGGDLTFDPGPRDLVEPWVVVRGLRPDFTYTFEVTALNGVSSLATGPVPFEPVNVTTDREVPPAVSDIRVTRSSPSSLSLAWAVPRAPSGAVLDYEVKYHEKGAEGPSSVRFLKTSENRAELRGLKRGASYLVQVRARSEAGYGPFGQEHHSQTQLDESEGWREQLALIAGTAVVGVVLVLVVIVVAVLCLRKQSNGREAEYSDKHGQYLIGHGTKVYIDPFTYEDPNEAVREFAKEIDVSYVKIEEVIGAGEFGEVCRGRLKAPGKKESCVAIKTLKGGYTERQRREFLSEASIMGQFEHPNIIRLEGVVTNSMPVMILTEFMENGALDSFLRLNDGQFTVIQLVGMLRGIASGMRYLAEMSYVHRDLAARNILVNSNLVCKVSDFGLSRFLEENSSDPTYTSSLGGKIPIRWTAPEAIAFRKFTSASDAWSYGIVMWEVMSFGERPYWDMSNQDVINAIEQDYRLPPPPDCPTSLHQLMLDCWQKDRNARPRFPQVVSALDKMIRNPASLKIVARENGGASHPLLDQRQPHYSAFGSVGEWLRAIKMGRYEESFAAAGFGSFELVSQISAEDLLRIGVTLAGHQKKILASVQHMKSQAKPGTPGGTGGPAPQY
Briefly: FACS, inhibition of murine ephrin-B2 binding to CHO-EphB4 cells. Here is the method: CHO-EphB4 cells were preincubated with matured Fab at different concentrations followed by addition of the ligand, murine ephrin-B2 (extracellular domain, 98% identity to human Ephrin-B2). Receptor-bound ephrin-B2 was then detected via biotinylated anti-mouse ephrin-B2 antibody (R&D Systems) and streptavidin-PE. […] The MOR07310 derivatives perform slightly better than the MOR03641 derivatives. The IC50 values of the x-cloned binders are in the same range as those of their cloning parentals.

Assay [3] deals with T2, myc-tagged human EphB4 on transfected …. The experiment in a line: FACS titration on CHO-EphB4 cells.
Another assay deals with T3, recombinant mouse EphB2 (mouse, UniProt P54763 19-540, limits assumed).
T3 construct: also called mEphB2
T3 sequence (looked up): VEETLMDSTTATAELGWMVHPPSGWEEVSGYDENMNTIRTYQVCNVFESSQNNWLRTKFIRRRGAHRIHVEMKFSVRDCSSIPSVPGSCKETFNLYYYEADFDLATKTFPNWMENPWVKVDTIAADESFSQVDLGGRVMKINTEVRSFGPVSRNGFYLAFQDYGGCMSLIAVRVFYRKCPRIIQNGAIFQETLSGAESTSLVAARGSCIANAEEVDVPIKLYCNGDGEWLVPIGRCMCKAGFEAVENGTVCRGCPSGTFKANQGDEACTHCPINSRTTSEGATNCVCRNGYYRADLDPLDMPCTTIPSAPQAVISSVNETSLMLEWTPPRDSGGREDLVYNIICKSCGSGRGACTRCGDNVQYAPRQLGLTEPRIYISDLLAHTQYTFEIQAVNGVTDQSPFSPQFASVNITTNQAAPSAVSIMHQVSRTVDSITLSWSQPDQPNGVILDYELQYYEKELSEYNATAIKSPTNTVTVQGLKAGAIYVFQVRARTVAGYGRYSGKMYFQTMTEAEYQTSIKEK
The experiment in a line: ELISA, well M15 [part 2].

Where only a bound is given, the exact number is not on record here.

B1: MOR03641 Fab (Fab, V domains shown)
VH: QVQLVQSGAEVKKPGSSVKVSCKASGGTFSTYAISWVRQAPGQGLEWMGRIIPIFGTANYAQKFQGRVTITADESTSTAYMELSSLRSEDTAVYYCARSSYTILTTYYNYNAMDNWGQGTLVTVSS
VL: DIQMTQSPSSLSASVGDRVTITCRASQNINNFLNWYQQKPGKAPKLLIYGSSILQSGVPSRFSGSGSGTDFTLTISSLQPEDFAVYYCHQVSDTSDTFGQGTKVEIKR
notes: Monomeric HuCAL Fab (VH1A, kappa1), purified, MH-tagged; also called 3541 [sic]
Regarding B1, the “IC50 (read off the curve)” value in assay [1] was roughly 4 µg/mL. For the same molecule, in assay [2], the IC50 stood at 4.7 nM. This molecule registered an EC50 in assay [3] greater than 40 nM.

B2: MOR03640 Fab (Fab, V domains shown)
VH: QVQLVESGGGLVQPGGSLRLSCAASGFTFNNSWMSWVRQAPGKGLEWVSNITSSSSMTHYADSVKGRFTISRDNSKNTLYLQMNSLRAEDTAVYYCARKGMSFYNNKYAKSMFDLWGQGTLVTVSS
VL: DIELTQPPSVSVAPGQTARISCSGDNLGKKYVHWYQQKPGQAPVLVIYYDSKRPSGIPERFSGSNSGNTATLTISGTQAEDEADYYCSAWTTTMMHIVFGGGTKLTVLG
notes: Monomeric HuCAL Fab, purified, MH-tagged
With B2, the binding result with recombinant mouse EphB2 is on record as “no binding”.

The values are drawn from US20090137002A1 (published 2009).
